Measurements: patent publication US20210253725A1 (BIONTECH, published 2021)
Changes are numbered by the printed parent chain. In names and notes the source's numbering stands.

T1: CD27 expressed on the cell surface of HT1080_CD27 cells (human, UniProt P26842 20-260)
T1 sequence (looked up): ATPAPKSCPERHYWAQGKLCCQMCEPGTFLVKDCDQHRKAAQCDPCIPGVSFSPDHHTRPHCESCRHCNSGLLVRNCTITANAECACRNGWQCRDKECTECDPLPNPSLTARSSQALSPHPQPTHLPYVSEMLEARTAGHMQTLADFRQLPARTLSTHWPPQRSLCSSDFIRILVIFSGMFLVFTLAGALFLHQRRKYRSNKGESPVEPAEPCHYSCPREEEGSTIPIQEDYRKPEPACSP

T2: CD27 protein (His-tagged, Sino Biological Inc. 10039-H08B1) (human, UniProt P26842 20-192)
T2 construct: bought protein coated on ELISA plates; also called TNFRSF7; not shown: His tag
T2 sequence (looked up): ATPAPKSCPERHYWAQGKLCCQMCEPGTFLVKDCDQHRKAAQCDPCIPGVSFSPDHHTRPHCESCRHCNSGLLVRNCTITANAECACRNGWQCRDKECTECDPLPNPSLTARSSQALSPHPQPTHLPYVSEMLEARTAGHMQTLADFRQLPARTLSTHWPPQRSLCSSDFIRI

B1: P018.S.06.A.H05 (antibody, V domains shown)
VH: QSLEESGGDLVQPEGSLTLTCKASGFDFSSTYWICWVRQAPGKGLEWIGCIDDSYAYTYYASWAKGRFTISKPSSTTVTLQVTSLTVADTATYFCARDGYPGYGVGSFNLWGPGTLVTVSS
VL: AIVMTQTPSSKSVPVGDTVTINCQASESVYSNNRLAWFQQKPGQPPKLLIYLASTLASGVPSRFKGSGSGTQFTLTISDVVSDDAATYYCAGYKSYSDDGTGFGGGTEVVVK
notes: V regions on human Ig constant parts; also called AB27_112
B2: P018.S.09.A.E02 (antibody, V domains shown)
VH: QSLEESGGRLVTPGTPLTLTCTASGFTISSHHMTWVRQAPGEGLEWLGVIFPSGHTYYTSWAKGRFTISRTSTTVDLKMASLTIEDTATYFCVRDVGYFTLWGQGTLVTVSS
VL: AQVLTQTPSPVSAAVGGTVTISCQSSESVGGNNWLAWYQQKLGQPPKLLIYGASTLASGVPSRFSGSGSGTQFTLTISEVQSDDAATYYCQGYYSDVTNAFGGGTEVVVE
notes: V regions on human Ig constant parts; also called AB27_153
B3: P018.S.06.A.A05 (antibody, V domains shown)
VH: QSLEESGGRLVTPGTPLTLTCTVSGIDLSSYAMGWVRQAPGKGLELIGLIYASNRTHYATWAKGRFTISKSSTTVDLKATSLTTEDTATYFCGRYGRGSGGYYYGMDLWGPGTLVTVSS
VL: DVVMTQTPASVEAAVGGTVTIKCQASQSGDNYLSWYQQKSGQPPKLLIYLASTLASGVPSRFRGSRSGTEYTLTISDLESADAATYYCQNYCAGSGVCVGVAFGGGTEVVVK
notes: V regions on human Ig constant parts; also called AB27_97
B4: P018.S.05.A.A06 (antibody, V domains shown)
VH: QSLEESGGRLVTPGTPLTLTCTVSGIDLNNNAMSWVRQAPGEGLEWIGIISTAGTTTYASWTKGRFTISKTSTTVDLKITSPTTEDTATYFCARAAYFSYGYINLWGQGTLVTVSS
VL: DIVMTQTPASVEAAVGGTVTIKCQASQNIGNALAWYQQKSGQPPKLLIYSASTLASGVPSRFKGSGSGTEFTLTISDLESADATTYFCQSYVYSDGNVFGGGTEVVVK
notes: V regions on human Ig constant parts; also called AB27_82
B5: P018.S.05.A.B06 (antibody, V domains shown)
VH: QSVEESGGRLVTPGTPLTLTCTVSGFSLNTYVMSWVRQAPGKGLEWIGYIDYGGAPYYASWAKGRFTISKTSTTVELKITSPTIEDTATYFCARGGYGGYVLVTVLWGPGTLVTVSS
VL: DVVMTQTPASVSEPVGGTVTIKCQASQNIYSSLAWYQQKPGQPPKLLIYQASTLASEVPSRFKGSGSGTEFTLTINDLESADAATYYCQTYYGGSTYGNGFGGGTEVVVE
notes: V regions on human Ig constant parts; also called AB27_84
B6: P018.S.07.A.A02 (antibody, V domains shown)
VH: B5 VH with N29S, T30S
VL: B5 VL with T53R, N76S
notes: V regions on human Ig constant parts; also called AB27_113
B7: P018.S.03.A.D04 (antibody, V domains shown)
VH: QEHLEESGGGLVQPGGTLTLTCKASGIDFSSSYYMCWVRQAPGKGLERLACTYNRDGSTYYASWAKGRFTISKTSSTTVTLQMTSLTVADTATYFCARDDGYPGSGYVLNLWGPGTLVTVSS
VL: DVVMTQTPASVEAAVGGTVTIRCQASQSVSNYFSWYQQKPGQPPKLLIYGASNLESGVPSRFKGSGSGTEFTLTISGVQSDDAATYYCQGGYYSSNTDNNSFGGGTEVVVK
notes: V regions on human Ig constant parts; also called AB27_49
B8: P018.S.10.A.H05 (antibody, V domains shown)
VH: QSLEESGGRLVTPGTPLTLTCTASGFSLSTYYMSWVRQAPGKGLEWIGIIYTSGSTYYASWAKGRFTISRNSTTVDLKITSPTTEDTATYFCARSRVPGDTTGLYYFNLWGPGTLVTVSS
VL: ALVMTQTPASVSAAVEGTVTINCQASENIYSNLAWYQQKPGQPPKLLIYHTSNLASGVPSRFKGSGAGTEFTLTISDLESDDAATYYCQSAYDSSSSDTFTFGGGTEVVVK
notes: V regions on human Ig constant parts; also called AB27_186
B9: P018.S.01.A.A06 (antibody, V domains shown)
VH: QSVEESGGRLVTPGTPLTLTCTVSGIDLSTYAMSWVRQAPGKGLEWIGIIYGSGYTYYASWAKGRATISKTSSTTVDLKITSPTTEDTATYFCASGYGISSGNFLHFNLWGQGTLVTVSS
VL: AYDMTQTPASVEVAVGGTVTIKCQASESIYFNLAWYQQKPGQRPKLLIYRASTLASGVSSRFKGSGSGTQFTLTISGVESADAATYYCQQGYDSSHIDNAFGGGTEVVVT
notes: V regions on human Ig constant parts; also called AB27_3
B10: P018.S.08.A.F01 (antibody, V domains shown)
VH: QSVEESGGRLVTPGTPLTLTCTVSGSDISGYALGWVRQAPGKGLEYIGVIAADGNAYYASWAKGRFTISRTSTTVDLKMTSLTTEDTATYFCARGYSSGWGTYGYFDLWGQGTLVTVSS
VL: DIVMTQTPASVSAAVGGTVTIKCQASEDIYSYLAWYQQKPGQPPKLLIYRASTLESGVPSRFKGSGSGTQFTLTISDLESADAATYYCQSYYYSHSTTYSNVFGGGTEVVVK
notes: V regions on human Ig constant parts; also called AB27_140
B11: P018.S.05.A.E03 (antibody, V domains shown)
VH: QSLEESGGRLVTPGGSLTLTCTVSGIDLSSYAMGWVRQAPGKGLEWIGYITYGGSTYYANWVNGRFTISKTSTMVDLKMTSLTAADTATYFCARLRAPYYYRIYFNLWGPGTLVTVSS
VL: ALVMTQTPSSVEAAVGGTVTIKCQASQNIISALAWYQQKPGQPPKLLIYDASNLESGVPSRFKGSGSGTDFTLTISDLESADAATYYCQGAYDTNINDFGGGTEVVVK
notes: V regions on human Ig constant parts; also called AB27_89
B12: P018.S.03.A.G05 (antibody, V domains shown)
VH: QSLEESGGDLVKPEGSLTLTCTASGFSFSSGGWICWVRQAPGRGLEWIACIYVGSSGTTHYASWAKGRFTISKTSSTTVTLQMTSLTAADTATYFCARGAVYGGGSYDNFHLWGPGTLVTVSS
VL: AYDMTQTPASVSEPVGGTVTIKCQASQSIGSYLSWYQQKPGQRPKLLIYAASTLASGVQSRFKGSGSGTDYTLTISGVQSDDAATYYCQQGYNISNLDNTFGGGTEVVVK
notes: V regions on human Ig constant parts; also called AB27_58
B13: P018.S.07.A.D05 (antibody, V domains shown)
VH: QSLEESGGDLVKPEGSLTLTCTASGFSFSSSYWICWVRQAPGKGLEWIGCMITGRGNTYYATWAKGRFTISKTSSTTVTLQMTSLTAADTATYFCARGPGGADPINLWGPGTLVTVSS
VL: DVVMTQTPASVSEPVGGTVTIKCQASQNIYNNLAWYQQKPGQPPKLLIYLASTLASGVPSRFEGSGSGTEFTLTISGVQSDDAATYYCQSTYDGSSYVPNAFGGGTEVVVK
notes: V regions on human Ig constant parts; also called AB27_124
B14: P018.S.09.A.F06 (antibody, V domains shown)
VH: QSVEESGGRLVTPGGSLTLTCSVSGIDLSSYAMNWVRQAPGKGLEWIGIISTGGSTYYANWAKGRFTISKTSTTVDLKITSPTTEDTATYICARDVGGTTVPYYFDLWGPGTLVTVSS
VL: AYDMTQTPASMEVAVGGTVTIKCQASESISSWLAWYQQKPGQPPKPLIYEASRLASGVPSRFKGSGSGTEFTLTISGVESADAATYYCQQGYGSSDVHNIFGGGTEVVVK
notes: V regions on human Ig constant parts; also called AB27_158
B15: P018.S.05.A.D03 (antibody, V domains shown)
VH: QEQLEESGGDLVQPEGSLTLTCTVSGFSFNSNYWICWVRQAPGKGLEWIACIMTGDGSTYYATWAKGRFTISKTSSTTVTLQMTSLTAADTATYFCARGYDGIHGGDNYGHVFNLWGPGTLVTVSS
VL: AFELTQTPFSVSAVVGGTVTINCQASENIYSLLAWYQQKPGQPPKLLIYRASTLASGVPSRFKGSGSGTQFTLIISDLESGDAATYYCQSYYINSSNSFGGGTEVVVK
notes: V regions on human Ig constant parts; also called AB27_86
B16: P018.S.10.A.E02 (antibody, V domains shown)
VH: QEQLEESGGDLVKPEGSLTLTCTASGFSFSSSFYMCWVRQAPGKGLEWVACIYAEDSDYTYYASWAKGRFTISKTSSTTVTLQMTSLTAADTATYFCAREILYPTNTDSFDLWGPGTLVTVSS
VL: AFELTQTPSSVEAAVGGTVTIKCQASESFSSRLAWYQQKPGQPPKLLIYRASTLASGVPSRFKGSGSGTDFTLTISDLESADAAAYYCQAYVGISSGGYAFGGGTEVVVG
notes: V regions on human Ig constant parts; also called AB27_176

The binders below were run against T1, CD27 expressed on the cell surface of … (assay: cell-based or functional assay).
Also: test concentration or dose not given here.

Functional assay Cross-linked by F(ab′)2 fragment IL-8	Functional assay IL-8	Binder
1.56 abs. corr.	0.278 abs. corr.	B1
1.61 abs. corr.	0.172 abs. corr.	B2
1.09 abs. corr.	0.433 abs. corr.	B3
1.58 abs. corr.	0.324 abs. corr.	B4
1.7 abs. corr.	0.22 abs. corr.	B5
1.85 abs. corr.	0.059 abs. corr.	B6
1.23 abs. corr.	0.513 abs. corr.	B7
1.11 abs. corr.	-0.155 abs. corr.	B8
1.92 abs. corr.	0.566 abs. corr.	B9
1.11 abs. corr.	0.211 abs. corr.	B10
1.92 abs. corr.	0.208 abs. corr.	B11
1.27 abs. corr.	0.031 abs. corr.	B12
1.64 abs. corr.	-0.032 abs. corr.	B13
2.03 abs. corr.	0.58 abs. corr.	B14
1.28 abs. corr.	0.1 abs. corr.	B15
1.39 abs. corr.	0.23 abs. corr.	B16

The binders below were run against T1, CD27 expressed on the cell surface of … (assay: HT1080_CD27 cells, imaging).

Cellular binding assay [RFU]	Binder
308 RFU	B1
305 RFU	B2
140 RFU	B3
374 RFU	B4
309 RFU	B5
314 RFU	B6
270 RFU	B7
313 RFU	B8
287 RFU	B9
395 RFU	B10
322 RFU	B11
269 RFU	B12
329 RFU	B13
218 RFU	B14
321 RFU	B15
395 RFU	B16

The binders below were run against T2, CD27 protein (His-tagged, Sino …) (assay: ELISA, coated His-tagged CD27).

ELISA [abs. corr.]	Binder
2.98 abs. corr.	B1
2.98 abs. corr.	B2
2.95 abs. corr.	B3
3.11 abs. corr.	B4
3.1 abs. corr.	B5
3.08 abs. corr.	B6
3.1 abs. corr.	B7
2.96 abs. corr.	B8
3.09 abs. corr.	B9
3.1 abs. corr.	B10
3.07 abs. corr.	B11
2.98 abs. corr.	B12
3.08 abs. corr.	B13
2.98 abs. corr.	B14
3.1 abs. corr.	B15
3.02 abs. corr.	B16
